Laboratory results as given in US8124835B2, “Acyl-coa-dependent diacylglycerol acyltransferas 1 (DGAT1) gene from Tropaeolum majus, protein encoded thereby and uses thereof” (National Research Council of Canada, priority 2006, dated 2012).

Tested on: B. napus HEAR breeding line 2026
Test: Over-expression of TmDGAT1 in B. napus HEAR breeding line 2026
Assay type: in vivo, Brassica napus
Description: FIG. 12. Over expression of the TmDGAT1 in B. napus High erucic acid rapeseed breeding line 2026 (courtesy of Dr. P. B. E. McVetty, University of Manitoba). Effect of transformation of B. napus with the TmDGAT1 cDNA under control of the napin promoter on (A) oil content (as percentage of mature seed dry weight), (B) Total oil/100 seeds, (C) Relative net oil content (with the control average set at 100%). T1 seeds of B. napus plasmid-only control transgenic lines (napin:pSE; black bar) and napin:TmDGAT1 transgenic lines (hatched bars) are shown ±SE.
The final binary vector (napin/DGAT/nos) was verified and electroporated into Agrobacterium tumefaciens cells strain GV3101 containing helper plasmid pMP90 (Koncz and Schell, 1986). Plasmid integrity was verified by DNA sequencing following its re-isolation from A. tumefaciens and transformation into E. coli.
Arabidopsis thaliana (ecotype Columbia) WT and mutant line AS11 (Katavic et al., 1995; Zou et al, 1999) were transformed by a vacuum infiltration method (Clough and Bent, 1998). B. napus HEAR breeding line 2026 (courtesy of Dr. P. B. E. McVetty, University of Manitoba) was transformed utilizing hypocotyl explants and a modified method of DeBlock et al., 1998. Modifications of the hypocotyl explant transformation method were described previously (Zou et al., 1997).
Total lipid extracts (TLEs) were prepared as described above, and lipid class analyses, determination of oil content and composition in all seed lines from WT and the AS11 transgenic plants and in nasturtium seed were performed as described previously (Taylor et al., 1991; 1992 a & b; Zou et al., 1997; Jako et al., 2001). In all cases, the data represent the averages of three to five determinations. Intact-seed transmethylation followed by gas chromatography (GC) analysis provided equally reproducible analyses of Arabidopsis seed oil as reported by Li et al., (2006). […]

B1: TmDGAT1: Tropaeolum majus acyl-CoA-dependent diacylglycerol acyltransferase 1, 518 amino acids (SEQ ID NO: 3), encoded by ORF SEQ ID NO: 2 (protein, listed as Tropaeolum majus)
chain: MAVAESSQNTTTMSGHGDSDLNNFRRRKPSSSVIEPSSSGFTSTNGVPATGHVAENRDQDRVGAMENATGSVNLIGNGGGVVIGNEEKQVGETDIRFTYRPSFPAHRRVRESPLSSDAIFKQSHAGLFNLCIVVLIAVNSRLIIENLMKYGWLIDTGFWFSSRSLGDWSIFMCCLTLPIFPLAAFIVEKLVQRNHISELVAVLLHVIVSTAAVLYPVIVILTCDSVYMSGVVLMLFGCIMWLKLVSYAHTSSDIRTLAKSGYKGDAHPNSTIVSCSYDVSLKSLAYFMVAPTLCYQPSYPRSSCIRKGWVVRQFVKLIVFIGLMGFIIEQYINPIVRNSKHPLKGDFLYAIERVLKLSVPNLYVWLCMFYSFFHLWLNILAELLRFGDREFYKDWWNAKTVAEYWKMWNMPVHRWMVRHLYFPCLRNGIPKEGAIIIAFLVSGAFHELCIAVPCHVFKLWAFIGIMFQVPLVLITNYLQEKFSNSMVGNMIFWFIFCILGQPMCVLLYYHDLINLKEK
B1 was tested, and the oil content increase (T1 generation compared to average pSE plasmid-only control lines) was 3.5-4.5%, the “increase in oil content on a per 100-seed basis” value (T1 seeds) was 20 to 30 mg and the “net overall oil increase” value (T1 seeds compared with average of pSE controls) was no more than 15%.
